Patent publication US20170073415A1 (NUMAB, published 2017)

Columns and labels:
[1] = target: human CD3ε expressed on the cell surface of T cells (Jurkat clone E6-1; human CD8+ T cells) (human) (UniProt P07766); test: cell-based or functional assay
[2] = target: T1, human CD3ε expressed on the cell surface of T cells (Jurkat clone E6-1; human CD8+ T cells) (human, UniProt P07766 23-207); test: cell-based or functional assay
[3] = target: human CD3ε expressed on the cell surface of T cells (Jurkat clone E6-1; human CD8+ T cells) (human) (UniProt P07766); test: cell-based or functional assay; remark: listed apart in the source
[4] = target: human heterodimeric single-chain CD3εγ extracellular domain (human) (UniProt P07766); test: SPR, human scCD3εγ ECD immobilised, scDb injected
[5] = target: T1, human CD3ε expressed on the cell …; test: cell-based or functional assay; remark: listed apart in the source

Row | Molecule | Fold increase in CD69 expression [MFI normalized to neg. ctrl.], 1.25 µg/ml anti-CD3 IgG, Jurkat cells, 24 h [2] [fold] | Fold increase in CD69 expression [MFI normalized to neg. ctrl.], 5 µg/ml anti-CD3 IgG, Jurkat cells, 24 h [2] [fold] | Fold increase in CD69 expression [MFI normalized to neg. ctrl.], 20 µg/ml anti-CD3 IgG, Jurkat cells, 24 h [2] [fold] | also measured
1 | TR66 (Novus Biologicals, Cat. No. NBP1-97446) (antibody) |  |  |  | Fold increase in CD69 expression [MFI normalized to neg. ctrl.], 1.25 µg/ml anti-CD3 IgG, Jurkat cells, 24 h [1]: 1.6 fold; Fold increase in CD69 expression [MFI normalized to neg. ctrl.], 5 µg/ml anti-CD3 IgG, Jurkat cells, 24 h [1]: 2.2 fold; Fold increase in CD69 expression [MFI normalized to neg. ctrl.], 20 µg/ml anti-CD3 IgG, Jurkat cells, 24 h [1]: 3 fold
2 | OKT3 (BioLegend, Cat. No. 317302) (antibody) |  |  |  | Fold increase in CD69 expression [MFI normalized to neg. ctrl.], 1.25 µg/ml anti-CD3 IgG, Jurkat cells, 24 h [1]: 1.8 fold; Fold increase in CD69 expression [MFI normalized to neg. ctrl.], 5 µg/ml anti-CD3 IgG, Jurkat cells, 24 h [1]: 2.5 fold; Fold increase in CD69 expression [MFI normalized to neg. ctrl.], 20 µg/ml anti-CD3 IgG, Jurkat cells, 24 h [1]: 3.1 fold
3 | clone-02 (monoclonal rabbit anti-CD3ε antibody) (antibody, V domains shown) VH: QSLEESGGRLVTPGTPLTLTCTVSGFPLSAYAMIWVRQAPGKGLEWIGMIIRSGTVYYANWAKGRFTISKTSTTVDLKITSPTTEDTATYFCARRHYNADGYPIGIGDLWGPGTLVTVSS VL: AQVLTQTPSSVSAVVGGTVTISCQSSESVYSNNRLSWFQQKPGQPPKLLIYSASTLASGVPSRFKGSGSGTQFTLTITDLECDDAATYFCQGEFSCSSVDCFSFGGGTEVVVKG | 3.3 | 4.6 | 7.4 | 
4 | Construct 1, bispecific anti-CD3×IL5R single-chain diabody comprising the humanized variable domain of clone-06 (bispecific antibody, part only; not given: anti-IL5R domains and linkers, part only) chain, part: DIQMTQSPSSLSASVGDRVTITCQSSESVYNNKRLSWYQQKPGKAPKLLIYTASSLASGVPSRFSGSGSGTDFTLTISSLQPEDFATYYCQGEFTCSNADCFTFGQGTKLTVLGEVQLVESGGGLVQPGGSLRLSCAASGFPLSSYAMIWVRQAPGKGLEWIGMILRAGNIYYASWVKGRFTISRDNSKNTVYLQMNSLRAEDTAVYYCARRHYNREGYPIGIGDLWGQGTLVTVSS |  |  |  | Potency to lyse target cells [EC50] (CHO-IL5R cells, CD8+ T cells, 88 h) [3]: 0.1 nM; Potency to stimulate IL-2 secretion by T cells [EC50] [3]: 0.96 nM; Kd [4]: 11.5 nM
5 | bispecific anti-IL5R×CD3ε single-chain diabody containing Numab's humanized clone 6 anti-CD3 variable domain (Example 9) (bispecific antibody) DIQMTQSPSSLSASVGDRVTITCQASQNIYSNLAWYQQKPGKAPKLLIYRASTLASGVPSRFSGSGSGTDFTLTISSLQPEDFATYYCQSNYGINYYGAAFGQGTKLTVLGGGGGSEVQLVESGGGLVQPGGSLRLSCAASGFPLSSYAMIWVRQAPGKGLEWIGMILRAGNIYYASWVKGRFTISRDNSKNTVYLQMNSLRAEDTAVYYCARRHYNREGYPIGIGDLWGQGTLVTVSSGGGGSGGGGSGGGGSGGGGSDIQMTQSPSSLSASVGDRVTITCQSSESVYNNKRLSWYQQKPGKAPKLLIYTASSLASGVPSRFSGSGSGTDFTLTISSLQPEDFATYYCQGEFTCSNADCFTFGQGTKLTVLGGGGGSEVQLVESGGGLVQPGGSLRLSCAASGFSLSSYDMTWVRQAPGKGLEWIGIIYVSGSAYYASWAKGRFTISRDNSKNTVYLQMNSLRAEDTAVYYCARINYGLDLWGQGTLVTVSS |  |  |  | EC50 of specific lysis of CHO-IL5R target cells by CD8+ T cells at 64 hours [5]: 0.31 nM

Continued, in another order:

Row | Fold increase in CD69 expression [MFI normalized to neg. ctrl.], 1.25 µg/ml anti-CD3 IgG, Jurkat cells, 24 h [2] [fold] | Fold increase in CD69 expression [MFI normalized to neg. ctrl.], 5 µg/ml anti-CD3 IgG, Jurkat cells, 24 h [2] [fold] | Fold increase in CD69 expression [MFI normalized to neg. ctrl.], 20 µg/ml anti-CD3 IgG, Jurkat cells, 24 h [2] [fold] | Molecule | also measured
6 | 2.7 | 5.1 | 5.3 | clone-06 (monoclonal rabbit anti-CD3ε antibody) (antibody, V domains shown) VH: QSVEESGGRLVTPGTPLTLTCTVSGFPLSSYAMIWVRQAPGKGLEWIGMILRAGNIYYASWVKGRVTISKTSTTVDLKITSPTTEDTATYFCARRHYNREGYPIGIGDLWGPGTLVTVSS VL: AQVLTQTPSSVSAAVGGTVTISCQSSESVYNNKRLSWFQQKPGQPPKQLIYTASSLASGVPSRFKGSGSGTQFTLTISDLECDDAATYYCQGEFTCSNADCFTFGGGTEVVVKG | 
7 | 2.6 | 3.5 | 7.8 | clone-04 (monoclonal rabbit anti-CD3ε antibody) (antibody, V domains shown) VH: QSLEESGGRLVKPDETLTLTCTVSGFPLSSYAMGWFRQAPGKGLEWIGMILRSDNTYYASWAKGRFTISKTSTTVDLKITSPTTEDTATYFCARRHYNASGNPIAIGDLWGPGTLVTVSS VL: AQVLTQTPSSVSAAVGGTVTINCQSSQSVYNNNRLSWFQQKPGQPPKLLIYTTSSLASGVPSRFKGSGSGTEFTLTISDLECADAATYYCQGEFSCSRADCFNFGGGTEVVVKG | 
8 | 2.6 | 4.6 | 6.6 | clone-03 (monoclonal rabbit anti-CD3ε antibody) (antibody, V domains shown) VH: QSLEESGGRLVTPGTPLTLTCTVSGFPLNRYAMLWVRQAPGKGLEWIGLITRADKKYYASWAKGRFTISKTSTTVDLEITGPTTEDTATYFCARRHYNTDGYPIAIGDLWGPGTLVTVSS VL: AQVLTQTPSSVSAAVGGTVTISCQSNENIYSNNRLSWFQQKPGQPPNQLIYSASSLASGVPSRFKGSGSGTQFTLTISDLECDDAATYYCQGEFNCNSADCFTFGGGTEVVVKG | 
9 | 2.6 | 4.2 | 6.2 | clone-10 (monoclonal rabbit anti-CD3ε antibody) (antibody, V domains shown) VH: QSLEESGGRLVTPGTPLTLTCTVSGFPLSSFAMLWVRQAPGKGLEWIGMIMRAHNMYYASWAKGRFTISKTSTTVDLEITSPTTEDTATYFCARRHYNTYGYPIAIGDLWGPGTLVTVSS VL: AQVLTQTPSSVSAAVGGTATISCQSNENIYSNNRLSWFQQKAGQPPNQLIYSASSLASGVPSRFKGSGSGTQFTLTISDLECDDAATYYCQGEFSCSSADCFTFGGGTEVVVKG | 
